In patent US8846394B2, “Treatment of neurological deficits in the striatum or substanta nigra pars compacta” (Ethicon, Inc., priority 2004, dated 2014):

Legend:
[1] = test system: adult rodent hippocampal neural progenitors; assay: Immunocytochemical staining (TuJ1, TH, GFAP) of neural progenitors after 17-day culture with growth factors; assay type: cell-based, rat
Procedure: Adult rodent hippocampal neural progenitors were isolated from adult rat brain following previously published methods [Svendson et al., Nat Rev Genet., 5(2) 136-44 (2004)]. Isolated cells were seeded at 1,000 cells/cm^2 into laminin-coated 24 well tissue culture plates (Becton Dickson, Bedford, Mass.).
Seeded cells were initially grown in a supplemented neuralbasal medium (NBM). The NBM was Neurobasal-A media (Invitrogen, Carlsbad, Calif.) with B27 supplement (Invitrogen, Carlsbad, Calif.), and L-glutamine (4 milliMolar) (Sigma, St. Louis, Mo.). Supplemented NBM also contains epidermal growth factor (EGF) (Sigma, St. Louis, Mo.), at 20 nanograms/milliliter, and basic fibroblast growth factor, (bFGF) (Peprotech, Rocky Hill, N.J.), at 20 nanograms/milliliter).
Set one of cells was cultured in supplemented NBM for 17 days. Set two of cells was initially cultured in supplemented NBM for 4 days. The supplemented NBM then was removed from the culture plates and cells were cultured in NBM containing MP52 (Biopharm GmbH, Heidelberg, Germany) at 20 nanograms/milliliter for a period of 13 days. Set three of cells was initially cultured in supplemented NBM for 10 days. The supplemented NBM then was removed from the culture plate, and cells were cultured in NMB containing Sonic Hedgehog, (SHH) (Sigma, St. Louis, Mo.), at 200 nanograms/milliliter, and fibroblast growth factor 8 (FGF8) (Peprotech, Rocky Hill, N.J.), at 100 nanograms/milliliter. Set four of cells was initially cultured in supplemented NBM for 10 days. The supplemented NBM then was removed from the culture plates and cells were cultured in NBM containing MP52 at 20 nanograms/milliliter, SHH at 200 nanograms/milliliter, and FGF8 at 100 nanograms/milliliter).
At the end of the 17-day experimental period, all cultures were fixed with 4 percent paraformaldehyde (Sigma, St. Louis, Mo.) and immunocytochemical staining was performed to evaluate expression of Beta Tubulin III (TuJ1), glial fibrilary acidic protein (GFAP), and tyrosine hydroxylase (TH). […]
Following immunocytochemical staining, fluorescence was visualized using an Olympus inverted epifluorescent microscope and images were taken with a digital camera and ImagePro software (Media Cybernetics, Silver Spring, Md.). To further quantify the response, fields of cells were counted at a magnification power of 200× to examine the percentage of positive cells for each marker and compared to control samples grown in NBM alone. A minimum of 1,000 cells were counted per condition or, if less, the total number of cells observed in that condition.
The percentage of cells positive for a given marker was determined by dividing the number of positive cells for a particular marker by the total number of nucleated cells determined by DAPI staining.

[2] = test system: human umbilical cord cells; assay: Quantitative PCR of Nurr1 and TH mRNA in umbilical postpartum cells after dopaminergic differentiation; assay type: cell-based
Procedure: Postpartum cells were isolated from an umbilical cord and placental digestion as described in U.S. patent application Ser. Nos. 10/887,012 and 10/877,446. Briefly, human umbilical cord and placental cells were isolated from explants of postpartum tissue.
Isolated umbilical and placental cells were seeded at 1,000 cells/cm^2 into laminin coated 24 well tissue culture plates (Corning, N.Y.). Cells were initially seeded in maintenance media (control) as described in nonprov serial no. After 4 days in maintenance media, cells were split into four groups. The first set of cells was switched to NBM supplemented with EGF (20 nanograms/milliliter) and bFGF (20 nanograms/milliliter) and grown for 13 days. Sets two through four were switched to NBM supplemented with EGF (20 nanograms/milliliter) and bFGF (20 nanograms/milliliter) and grown for 6 days. The NBM supplemented with EGF and […] was then removed and cells were cultured in NBM containing; MP52 plus SHH plus FGF8 (set two); MP52 plus SHH plus FGF8 plus retinoic acid (RA) (set three); or MP52 plus RA (set four) for a further 7 days of culture.
At the end of the 17-day experimental period, RNA was isolated from the induced cell population using an Rneasy kit (RNeasy Mini kit, Qiagen, Valencia, Calif.). […]

[3] = test system: embryonic rat dopaminergic neurons; settings: in vitro; cited from earlier work
[4] = test system: adult rat nigrostriatal dopaminergic system; settings: intraparenchymal injection; cited from earlier work
[5] = immunostain, end of 17-day culture, positive cells / DAPI nucleated cells

B1: MP52: human recombinant GDF5 protein, 120 amino acid residues with alanine at the N-terminus, from Biopharm GmbH (protein, UniProt P43026 382-501, looked up)
Growth/differentiation factor …: APLATRQGKRPSKNLKARCSRKALHVNFKDMGWDDWIIAPLEYEAFHCEGLCEFPLRSHLEPTNHAVIQTLMNSMDPESTPPTCCVPTRLSPISILFIDSANNVVYKQYEDMVVESCGCR
With B1 the “differentiation towards an astrocytic phenotype (GFAP expression), in words” value ([1]; immunocytochemistry) was “increased expression”, the “Nurr1 expression, in words” value ([2]; postpartum cell cultures (umbilicus and placenta), compared to control (NBM plus EGF plus FGF8)) was “induced” and the “Tyrosine hydroxylase (TH) expression, in words” value ([2]; umbilical cell cultures, compared to control) was “induced”. The “survival-promoting action on dopaminergic neurons against MPP+” value [3] was “survival-promoting actions”.

B2: NBM + MP52: neurobasal medium containing MP52 at 20 nanograms/milliliter (protein, UniProt P43026 382-501, looked up)
Growth/differentiation factor …: APLATRQGKRPSKNLKARCSRKALHVNFKDMGWDDWIIAPLEYEAFHCEGLCEFPLRSHLEPTNHAVIQTLMNSMDPESTPPTCCVPTRLSPISILFIDSANNVVYKQYEDMVVESCGCR
modifications: in neurobasal medium, 20 ng/mL
notes: neurobasal medium containing MP52 at 20 nanograms/milliliter
For B2, the “Percentage of cells staining positive for GFAP” value [1, 5] was “≧80%”, the “Percentage of cells staining positive for TH” value [1, 5] was 6.1% and the “Percentage of cells staining positive for TuJ1” value [1, 5] was 12.5%.

B3: GDF5: growth and differentiation factor protein of the TGF-beta superfamily (literature studies) (protein, UniProt P43026 382-501, looked up)
Growth/differentiation factor …: APLATRQGKRPSKNLKARCSRKALHVNFKDMGWDDWIIAPLEYEAFHCEGLCEFPLRSHLEPTNHAVIQTLMNSMDPESTPPTCCVPTRLSPISILFIDSANNVVYKQYEDMVVESCGCR
For B3, the “protection of nigrostriatal dopaminergic system from death induced by 6OHDA lesion” value [4] is listed as “protects”.
